Measured values published in PMC6391106 (2019).

Columns and labels:
[1] = biological target: murine C3b Asn1115 (mouse, UniProt P01027 749-1663; P01027 749-1663, D1115N); assay: SPR
[2] = biological target: T1, recombinant human WT C3(H2O) (human, UniProt P01024 23-1663); assay: SPR; methylamine-treated C3
[3] = biological target: recombinant human C3(H2O) Asn1115 (human, UniProt P01024 23-1663, D1115N); assay: SPR; methylamine-treated C3
[4] = biological target: T1, recombinant human WT C3(H2O); assay: SPR

T1 sequence (P01024 23-1663): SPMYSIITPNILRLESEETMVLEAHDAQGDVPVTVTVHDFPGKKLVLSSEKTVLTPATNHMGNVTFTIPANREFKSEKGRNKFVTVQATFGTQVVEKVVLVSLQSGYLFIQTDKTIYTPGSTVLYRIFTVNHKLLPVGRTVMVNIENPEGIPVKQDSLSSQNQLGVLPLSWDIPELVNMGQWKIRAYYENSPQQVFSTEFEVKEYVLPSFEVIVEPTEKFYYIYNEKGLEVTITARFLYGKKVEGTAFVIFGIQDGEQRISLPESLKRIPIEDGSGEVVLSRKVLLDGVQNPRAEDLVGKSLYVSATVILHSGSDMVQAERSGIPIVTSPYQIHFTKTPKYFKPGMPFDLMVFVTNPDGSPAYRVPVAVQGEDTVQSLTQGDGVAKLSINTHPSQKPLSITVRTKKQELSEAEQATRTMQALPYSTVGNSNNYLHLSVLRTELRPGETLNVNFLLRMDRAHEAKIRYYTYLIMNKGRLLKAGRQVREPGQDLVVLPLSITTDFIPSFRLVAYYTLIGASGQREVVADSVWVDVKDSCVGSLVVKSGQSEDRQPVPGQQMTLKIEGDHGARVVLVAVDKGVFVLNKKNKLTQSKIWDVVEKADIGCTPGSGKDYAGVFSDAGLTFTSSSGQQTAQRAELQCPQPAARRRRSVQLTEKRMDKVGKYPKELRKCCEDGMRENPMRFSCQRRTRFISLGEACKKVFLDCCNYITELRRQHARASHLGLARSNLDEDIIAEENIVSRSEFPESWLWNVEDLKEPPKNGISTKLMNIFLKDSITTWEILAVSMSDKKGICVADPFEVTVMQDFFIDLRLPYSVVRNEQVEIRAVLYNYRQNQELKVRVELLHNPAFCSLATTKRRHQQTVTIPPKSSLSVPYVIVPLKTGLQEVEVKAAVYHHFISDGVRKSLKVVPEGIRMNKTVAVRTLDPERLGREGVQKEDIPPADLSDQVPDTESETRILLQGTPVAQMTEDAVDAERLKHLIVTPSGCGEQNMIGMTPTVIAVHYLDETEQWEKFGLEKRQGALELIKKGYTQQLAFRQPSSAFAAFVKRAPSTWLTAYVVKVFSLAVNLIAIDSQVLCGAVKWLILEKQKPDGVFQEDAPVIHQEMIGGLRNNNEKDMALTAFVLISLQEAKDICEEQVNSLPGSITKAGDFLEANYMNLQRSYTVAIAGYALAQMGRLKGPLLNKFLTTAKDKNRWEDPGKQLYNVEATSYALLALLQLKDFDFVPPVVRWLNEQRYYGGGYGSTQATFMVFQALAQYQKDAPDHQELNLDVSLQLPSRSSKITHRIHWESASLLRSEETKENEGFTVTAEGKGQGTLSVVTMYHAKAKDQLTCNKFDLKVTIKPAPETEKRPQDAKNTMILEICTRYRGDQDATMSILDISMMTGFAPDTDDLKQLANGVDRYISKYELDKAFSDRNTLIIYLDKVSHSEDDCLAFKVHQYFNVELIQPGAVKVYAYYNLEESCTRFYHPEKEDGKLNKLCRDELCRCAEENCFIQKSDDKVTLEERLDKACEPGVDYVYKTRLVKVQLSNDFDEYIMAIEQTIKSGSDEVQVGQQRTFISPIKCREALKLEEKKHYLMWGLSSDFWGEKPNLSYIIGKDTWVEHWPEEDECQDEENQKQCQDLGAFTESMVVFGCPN
Sequence of murine C3b Asn1115 (P01027 25-666, chain 1 of 2): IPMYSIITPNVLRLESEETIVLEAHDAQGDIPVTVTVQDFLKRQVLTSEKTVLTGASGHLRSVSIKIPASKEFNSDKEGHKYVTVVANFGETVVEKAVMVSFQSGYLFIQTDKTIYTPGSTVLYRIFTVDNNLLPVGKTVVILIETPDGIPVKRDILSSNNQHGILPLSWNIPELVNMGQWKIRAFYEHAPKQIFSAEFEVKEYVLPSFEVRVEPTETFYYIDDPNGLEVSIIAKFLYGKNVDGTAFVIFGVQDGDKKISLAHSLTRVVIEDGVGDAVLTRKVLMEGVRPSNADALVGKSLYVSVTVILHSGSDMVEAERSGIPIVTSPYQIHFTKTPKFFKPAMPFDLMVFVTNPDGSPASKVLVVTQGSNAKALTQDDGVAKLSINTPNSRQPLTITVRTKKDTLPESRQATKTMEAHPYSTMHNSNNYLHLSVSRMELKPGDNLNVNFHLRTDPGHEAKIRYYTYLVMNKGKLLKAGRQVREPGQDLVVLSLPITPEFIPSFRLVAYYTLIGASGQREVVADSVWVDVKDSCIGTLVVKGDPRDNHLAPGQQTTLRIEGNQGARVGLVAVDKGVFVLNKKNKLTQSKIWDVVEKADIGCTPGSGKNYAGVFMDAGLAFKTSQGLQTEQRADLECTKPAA
Sequence of murine C3b Asn1115 (P01027 749-1663 D1115N, chain 2 of 2): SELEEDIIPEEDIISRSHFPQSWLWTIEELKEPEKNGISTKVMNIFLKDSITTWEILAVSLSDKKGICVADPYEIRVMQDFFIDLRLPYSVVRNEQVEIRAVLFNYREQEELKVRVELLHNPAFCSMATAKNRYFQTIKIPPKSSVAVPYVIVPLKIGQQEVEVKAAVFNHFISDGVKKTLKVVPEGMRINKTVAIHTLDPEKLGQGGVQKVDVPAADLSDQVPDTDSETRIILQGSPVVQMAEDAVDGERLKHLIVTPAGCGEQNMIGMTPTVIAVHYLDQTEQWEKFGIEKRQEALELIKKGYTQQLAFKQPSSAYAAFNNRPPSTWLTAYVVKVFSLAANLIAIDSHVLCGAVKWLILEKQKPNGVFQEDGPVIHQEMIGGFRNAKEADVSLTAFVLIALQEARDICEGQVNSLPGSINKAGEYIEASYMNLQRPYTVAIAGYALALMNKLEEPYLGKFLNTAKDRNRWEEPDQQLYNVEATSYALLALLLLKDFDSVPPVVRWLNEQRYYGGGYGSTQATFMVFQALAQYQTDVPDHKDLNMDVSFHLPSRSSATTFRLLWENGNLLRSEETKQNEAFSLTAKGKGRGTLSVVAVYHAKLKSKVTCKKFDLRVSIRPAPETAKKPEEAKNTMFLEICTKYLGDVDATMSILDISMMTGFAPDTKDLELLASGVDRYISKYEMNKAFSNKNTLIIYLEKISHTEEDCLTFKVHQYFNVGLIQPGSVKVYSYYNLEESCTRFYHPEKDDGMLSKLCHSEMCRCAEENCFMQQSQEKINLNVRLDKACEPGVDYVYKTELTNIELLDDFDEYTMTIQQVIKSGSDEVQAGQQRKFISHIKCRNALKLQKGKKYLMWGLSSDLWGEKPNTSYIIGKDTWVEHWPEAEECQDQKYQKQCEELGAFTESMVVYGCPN
Sequence of recombinant human C3(H2O) Asn1115 (P01024 23-1663 D1115N): as the sequence (P01024 23-1663) above, with D1093N counted along it

B1: recombinant human FH SCRs 19–20 (domain or fragment)
chain: GKCGPPPPIDNGDITSFPLSVYAPASSVEYQCQNLYQLEGNKRITCRNGQWSEPPKCLHPCVISREIMENYNIALRWTAKQKLYSRTGESVEFVCKRGYRLSSRSHTLRTTCWDGKLEYPTCAK
modifications: C3b made from plasma-purified C3 by factor B/factor D cleavage (C3a released); beta and alpha' chains disulfide-linked; thioester (Cys1010-Gln1013) hydrolysed; N-glycosylated; amine-coupled to CM5 chip
- Kd [1]: > 17.4 µM

B2: human FH (natural protein)
chain: EDCNELPPRRNTEILTGSWSDQTYPEGTQAIYKCRPGYRSLGNVIMVCRKGEWVALNPLRKCQKRPCGHPGDTPFGTFTLTGGNVFEYGVKAVYTCNEGYQLLGEINYRECDTDGWTNDIPICEVVKCLPVTAPENGKIVSSAMEPDREYHFGQAVRFVCNSGYKIEGDEEMHCSDDGFWSKEKPKCVEISCKSPDVINGSPISQKIIYKENERFQYKCNMGYEYSERGDAVCTESGWRPLPSCEEKSCDNPYIPNGDYSPLRIKHRTGDEITYQCRNGFYPATRGNTAKCTSTGWIPAPRCTLKPCDYPDIKHGGLYHENMRRPYFPVAVGKYYSYYCDEHFETPSGSYWDHIHCTQDGWSPAVPCLRKCYFPYLENGYNQNYGRKFVQGKSIDVACHPGYALPKAQTTVTCMENGWSPTPRCIRVKTCSKSSIDIENGFISESQYTYALKEKAKYQCKLGYVTADGETSGSITCGKDGWSAQPTCIKSCDIPVFMNARTKNDFTWFKLNDTLDYECHDGYESNTGSTTGSIVCGYNGWSDLPICYERECELPKIDVHLVPDRKKDQYKVGEVLKFSCKPGFTIVGPNSVQCYHFGLSPDLPICKEQVQSCGPPPELLNGNVKEKTKEEYGHSEVVEYYCNPRFLMKGPNKIQCVDGEWTTLPVCIVEESTCGDIPELEHGWAQLSSPPYYYGDSVEFNCSESFTMIGHRSITCIHGVWTQLPQCVAIDKLKKCKSSNLIILEEHLKNKKEFDHNSNIRYRCRGKEGWIHTVCINGRWDPEVNCSMAQIQLCPPPPQIPNSHNMTTTLNYRDGEKVSVLCQENYLIQEGEEITCKDGRWQSIPLCVEKIPCSQPPQIEHGTINSSRSSQESYAHGTKLSYTCEGGFRISEENETTCYMGKWSSPPQCEGLPCKSPPEISHGVVAHMSDSYQYGEEVTYKCFEGFGIDGPAIAKCLGEKWSHPPSCIKTDCLSLPSFENAIPMGEKKDVYKAGEQVTYTCATYYKMDGASNVTCINSRWTGRPTCRDTSCVNPPTVQNAYIVSRQMSKYPSGERVRYQCRSPYEMFGDEEVMCLNGNWTEPPQCKDSTGKCGPPPPIDNGDITSFPLSVYAPASSVEYQCQNLYQLEGNKRITCRNGQWSEPPKCLHPCVISREIMENYNIALRWTAKQKLYSRTGESVEFVCKRGYRLSSRSHTLRTTCWDGKLEYPTCAKR
- Kd [2]: 3.79 µM
- Kd [3]: 6.37 µM

B3: human membrane cofactor protein (MCP) (natural protein)
chain: CEEPPTFEAMELIGKPKPYYEIGERVDYKCKKGYFYIPPLATHTICDRNHTWLPVSDDACYRETCPYIRDPLNGQAVPANGTYEFGYQMHFICNEGYYLIGEEILYCELKGSVAIWSGKPPICEKVLCTPPPKIKNGKHTFSEVEVFEYLDAVTYSCDPAPGPDPFSLIGESTIYCGDNSVWSRAAPECKVVKCRFPVVENGKQISGFGKKFYYKATVMFECDKGFYLDGSDTIVCDSNSTWDPPVPKCLKVLPPSSTKPPALSHSVSTSSTTKSPASSASGPRPTYKPPVSNYPGYPKPEEGILDSLDVWVIAVIVIAIVVGVAVICVVPYRYLQRRKKKGTYLTDETHREVKFTSL
- Kd [4]: 2.1 µM
